# Experimental data as given in article PMC8934638, “H3K36 methylation and DNA-binding both promote Ioc4 recruitment and Isw1b remodeler function”.
# T1: Ioc4 2KE (Saccharomyces cerevisiae, UniProt Q04213 1-475, K149E;K150E)
# T1 sequence: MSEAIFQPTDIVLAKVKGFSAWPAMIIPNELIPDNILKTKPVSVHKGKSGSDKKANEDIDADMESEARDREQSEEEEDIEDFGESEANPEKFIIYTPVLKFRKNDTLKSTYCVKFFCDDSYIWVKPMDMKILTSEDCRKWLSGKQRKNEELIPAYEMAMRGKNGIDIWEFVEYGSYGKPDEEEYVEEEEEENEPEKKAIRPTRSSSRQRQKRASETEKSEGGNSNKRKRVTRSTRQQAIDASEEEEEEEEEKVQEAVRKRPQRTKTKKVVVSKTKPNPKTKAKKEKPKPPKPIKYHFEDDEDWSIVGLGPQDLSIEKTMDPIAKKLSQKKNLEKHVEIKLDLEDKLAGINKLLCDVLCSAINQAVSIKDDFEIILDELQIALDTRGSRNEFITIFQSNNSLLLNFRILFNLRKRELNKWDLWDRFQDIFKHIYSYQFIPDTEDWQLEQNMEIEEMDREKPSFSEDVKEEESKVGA
# T2: Ioc4 PWWP 2KE (Saccharomyces cerevisiae, UniProt Q04213 1-178, K149E;K150E)
# T2 sequence: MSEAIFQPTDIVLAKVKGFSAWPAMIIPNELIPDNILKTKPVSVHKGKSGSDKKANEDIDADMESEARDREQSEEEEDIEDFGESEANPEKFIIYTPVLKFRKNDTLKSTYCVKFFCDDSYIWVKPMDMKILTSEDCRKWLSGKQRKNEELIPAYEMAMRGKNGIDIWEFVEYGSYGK
# T3: Ioc4 dPWWP (Saccharomyces cerevisiae, UniProt Q04213 179-475, del1-178)
# T3 sequence: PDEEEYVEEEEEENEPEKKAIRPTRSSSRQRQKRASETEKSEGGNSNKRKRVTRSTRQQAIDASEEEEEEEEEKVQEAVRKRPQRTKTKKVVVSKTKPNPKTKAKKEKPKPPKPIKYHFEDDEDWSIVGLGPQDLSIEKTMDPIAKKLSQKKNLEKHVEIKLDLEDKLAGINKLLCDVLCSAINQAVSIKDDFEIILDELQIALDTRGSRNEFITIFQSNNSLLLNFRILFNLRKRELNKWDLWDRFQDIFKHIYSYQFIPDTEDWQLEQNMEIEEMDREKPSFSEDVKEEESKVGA
# T4: Ioc4 PWWP 2KA (Saccharomyces cerevisiae, UniProt Q04213 1-178, K149A;K150A)
# T4 sequence: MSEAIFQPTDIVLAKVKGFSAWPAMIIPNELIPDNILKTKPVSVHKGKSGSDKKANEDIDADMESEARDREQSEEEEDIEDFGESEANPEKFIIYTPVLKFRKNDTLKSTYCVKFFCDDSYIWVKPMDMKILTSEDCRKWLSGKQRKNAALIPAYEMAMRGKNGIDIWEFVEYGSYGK
# Legend:
# Assay in all cases: EMSA; EMSA; 15 fmol NCP (30 fmol unmodified NCP) per reaction; 5% native PAGE (37.5:1) in 0.4x TBE, 2% glycerol; binding buffer, pH and temperature not given (as in cited work)
# Ioc4 2KE = molecular target: T1, Ioc4 2KE; details: protein: recombinant; tags: N-terminal 6xHis-MBP; label: Cy5 on sense strand; blunt
# Ioc4 PWWP 2KE = molecular target: T2, Ioc4 PWWP 2KE; details: protein: recombinant; tags: N-terminal 6xHis; label: Cy5 on sense strand; blunt
# Ioc4 dPWWP = molecular target: T3, Ioc4 dPWWP; details: protein: recombinant; tags: N-terminal 6xHis-MBP; label: Cy5 on sense strand; blunt
# Ioc4 PWWP 2KA = molecular target: T4, Ioc4 PWWP 2KA; details: protein: recombinant; label: Cy5 on sense strand; blunt
binder,measurement,setting,value
dsDNA 30 bp (601-derived EMSA probe) (dsDNA) DNA 1: GGCAAGGTCGCTGTTCAATACATGCACAGG DNA 2: CCTGTGCATGTATTGAACAGCGACCTTGCC,Kd,Ioc4 2KE,76 nM
same,binding result,Ioc4 PWWP 2KE,no binding
same,Kd,Ioc4 dPWWP,121 nM
same,binding result,Ioc4 PWWP 2KA,no binding
